Data from US20150216891A1 (INSTITUT NATIONAL DE LA SANTE ET DE LA RECHERCHE MEDICALE …, published 2015).

Target: T1, Translationally-Controlled Tumor Protein (TCTP) (human, UniProt P13693 1-172)
T1 construct: Endogenous TCTP in LNCaP cell lysates, immunoprecipitated with rabbit anti-TCTP antibody (Abcam); also called translationally-controlled tumour protein
T1 sequence: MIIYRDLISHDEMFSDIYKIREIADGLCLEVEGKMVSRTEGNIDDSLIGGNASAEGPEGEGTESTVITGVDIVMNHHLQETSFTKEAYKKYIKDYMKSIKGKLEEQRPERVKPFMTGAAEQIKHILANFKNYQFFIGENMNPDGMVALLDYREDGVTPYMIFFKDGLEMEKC
Experiment: not named at this place (co-immunoprecipitation of Example 12)

B1: Hsp27 C1 deletion mutant (amino acids 93 to 205 of SEQ ID NO: 16), histidine-tagged (other, not shown: small tags and cut ends)
chain: DRWRVSLDVNHFAPDERTVKTKDGVVEISGKHEELQDEHGYISRCFTRKYTLPPGVDPTQVSSSLSPEGTLTVEAPMPKLATQSNEITIPVTFESRAQLGGPEAAKSDETAAK
notes: Transiently expressed in LNCaP cells
binding result: binds
